# Tests used:
# MS2 coat protein [1] = test: apparent KD of MS2 coat protein, switch ON state; designed switch direction (-1 OFF switch, 1 ON switch): -1; higher = weaker reporter binding; conditions: FMN input: 0 or 200 uM; Eterna round: R93 (includes R88 designs)
# How it was run: (§1)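 Apparent KD is reported per design as the median of normalised binding-curve fits across its clusters. The RNA switches were made by on-chip transcription from Illumina sequencing clusters. SNAP-549-labelled MS2 coat protein was then added in twofold steps (0.7 or 1.5 nM to 3 µM; 0.8–1.5 h to 10–20 min per step) in 100 mM Tris-HCl pH 7.5, 80 mM KCl, 4 mM MgCl2, without or with constant ligand.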
# MS2 coat protein [2] = test: apparent KD of MS2 coat protein, switch OFF state (with FMN for OFF switches, without FMN for ON switches); designed switch direction (-1 OFF switch, 1 ON switch): -1; higher = weaker reporter binding; conditions: FMN input: 0 or 200 uM; Eterna round: R93 (includes R88 designs)
# How it was run: as §1
Sequence,apparent KD of MS2 coat protein (MS2 coat protein [1]),apparent KD of MS2 coat protein (MS2 coat protein [2])
AAAAAACAUGAGGAUCACCCAUGUAAGGAUAUGCGAUGGAAAAUAAAAAUAAAACAUAGCAGAAGGUACACCAA [Amethyst 82],29.4 nM,28.2 nM
ACCAAUGGAGGAUAUACAUGAGGAUCACCCAUGUAUAACCUACAUAGGUGAAAAAAAUGUAGAAGGCCAUUGGA [EX3 233: Super Stable 33],31.2 nM,16.9 nM
UACGUAUGAGGAUAUACAAACAGAAAAAUCAGACGUAAGUGACAUGAGGAUCACCCAUGUAGAAGGCAUAUGCA [JR_Exc002_Sub906],26.9 nM,19.7 nM
AAGAACCAAGGAUAUACAUGAGGAUCACCCAUGUAAAAGAAAGAAGGGAAAGAGAAAAGUAGAAGGUGGAAGAA [Djedkaure Shebitku],28.3 nM,22.7 nM
AACAUACAUGAGGAUCACCCAUGUCAGGAUAUGCCGGGUUAGAACCAACUAAAAAAACGUAGAAGGGACAAAAA [Bilbo Confounded 5 - Jieux - Exclusion 1],63.3 nM,46.7 nM
"AAAAAGGGAGGAUAUACAUGAGGAUCACCCAUGUGAAAGACGAAAAAGAGUCUAAAGGGUAGAAGGCCCAAAAA [65%, Moding Exclusion3-cac2, 10]",51.1 nM,49.2 nM
AGAAAGCGAGGAUAUACUAAGAAACCUCAAAGAAAGAAGAAACAUGAGGAUCACCCAUGUAGAAGGCGCAAAGA [JR_Exc002_Sub002],28.3 nM,70.8 nM
GCAAAGUGAGGAUAUACGCGAACAAAAAAAAAAAAGAAAGCGUAGAAGGCACAUGAGGAUCACCCAUGUCCAGC [Alfred 64% 2],23.5 nM,25.1 nM
AAGAAGUGAGGAUAUCGAAGACUGUCGAAAAGACAGUCGAACGAGAAGGCACAUGAGGAUCACCCAUGUGGGAA [Marsurpial 65% 6],77.1 nM,171 nM
"AACUAGUCAGGAUAUACGAACAUGUCAAAAGACAUGAAGGGACAUGAGGAUCACCCAUGUAGAAGGGACUAGCA [74%, Web mod - With 2 less G's]",44 nM,148 nM
AAAACUGGAGGAUAUACAUGAGGAUCACCCAUGUGUGGAUGAGCUGUGUCGGCGUCAGGUAGAAGGCCACAAAA [Gilly Gone Silly 35 - Jieux - Exclusion 3],36.3 nM,43.1 nM
GUAGAGUGAGGAUAUGAUUAAAAGAAGGGAAAGAGACAGCAUCAGAAGGCACAUGAGGAUCACCCAUGUAUGAA [JR_Exc004_Sub1224],26.9 nM,27.1 nM
GAAGAACAUGAGGAUCACCCAUGUCAGGAUAUACAGAAGGGAAUAAUAUAAUCUGGAAGUAGAAGGGACAAGAA [Ex 1 May 45],31.8 nM,51.4 nM
CUCUUGUGAGGAUAUGCAAGAAAAGAAAAGAAAGAAAAGAAGCAGAAGGCACAUGAGGAUCACCCAUGUAAGAA [EteRNA is fun!],53.3 nM,25.9 nM
AGCUAGUCAGGAUAUACGAACAUGUCAAAAGACGUGAAGAAACAUGAGGAUCACCCAUGUAGAAGGGACUAGCA [Mat - Exclusion 2 - JL-Eli mod - D50],16.7 nM,12.4 nM
AACAGUACAGGAUAUACAUGAGGAUCACCCAUGUGAAAAUUAAGUGGCGUACCACAAAGUAGAAGGGUACUGAA [Moding Maslow Revisited (73) 26],27.9 nM,125 nM
AACUGACAUGAGGAUCACCCAUGUCAGGAUAUGAUAUGUAAAAAAAUAAAAAUACUUAUCAGAAGGGACAUGGG [Design 39: Sub-opt A],18.2 nM,20 nM
"AGCUAGUCAGGAUAUACGAACAAGACAAAAGACGUGAAGGGACAUGAGGAUCACCCAUGUAGAAGGGACUAGCA [74%, Web mod - With 2 less U's]",26.2 nM,71.3 nM

# Source: the supplement of paper PMC9170038
